In US11242370B2, “Neuregulin-4 compounds and methods of use” (Eli Lilly and Company, priority 2019, dated 2022):
Residue numbers refer to the chain shown, from its start. In names and notes the source's numbering stands. Marks after values point to notes of the source that are not given here.

What was measured:
[1] = Plasma pharmacokinetics in monkeys (toxicology studies); settings: cynomolgus monkey, in vivo, sc, 3 mg/kg
Experimental: (§1) Example 11 is administered in a single 3 mg/kg dose to male and female monkeys by SC bolus injection.

rats = test: Toxicology study in rats, cardiac tissue inspection; settings: single SC injection of 30 mg/kg
rat HER2/HER4 = molecular target: T1, rat HER2/HER4 (Rattus norvegicus, UniProt Q62956); test: Rat HER2/HER4 phospho-ERK 1/2 assay, purified proteins, CHO-K1 cells; type: cell-based
T1 construct: expressed in transfected cells
T1 sequence (Q62956 26-1308): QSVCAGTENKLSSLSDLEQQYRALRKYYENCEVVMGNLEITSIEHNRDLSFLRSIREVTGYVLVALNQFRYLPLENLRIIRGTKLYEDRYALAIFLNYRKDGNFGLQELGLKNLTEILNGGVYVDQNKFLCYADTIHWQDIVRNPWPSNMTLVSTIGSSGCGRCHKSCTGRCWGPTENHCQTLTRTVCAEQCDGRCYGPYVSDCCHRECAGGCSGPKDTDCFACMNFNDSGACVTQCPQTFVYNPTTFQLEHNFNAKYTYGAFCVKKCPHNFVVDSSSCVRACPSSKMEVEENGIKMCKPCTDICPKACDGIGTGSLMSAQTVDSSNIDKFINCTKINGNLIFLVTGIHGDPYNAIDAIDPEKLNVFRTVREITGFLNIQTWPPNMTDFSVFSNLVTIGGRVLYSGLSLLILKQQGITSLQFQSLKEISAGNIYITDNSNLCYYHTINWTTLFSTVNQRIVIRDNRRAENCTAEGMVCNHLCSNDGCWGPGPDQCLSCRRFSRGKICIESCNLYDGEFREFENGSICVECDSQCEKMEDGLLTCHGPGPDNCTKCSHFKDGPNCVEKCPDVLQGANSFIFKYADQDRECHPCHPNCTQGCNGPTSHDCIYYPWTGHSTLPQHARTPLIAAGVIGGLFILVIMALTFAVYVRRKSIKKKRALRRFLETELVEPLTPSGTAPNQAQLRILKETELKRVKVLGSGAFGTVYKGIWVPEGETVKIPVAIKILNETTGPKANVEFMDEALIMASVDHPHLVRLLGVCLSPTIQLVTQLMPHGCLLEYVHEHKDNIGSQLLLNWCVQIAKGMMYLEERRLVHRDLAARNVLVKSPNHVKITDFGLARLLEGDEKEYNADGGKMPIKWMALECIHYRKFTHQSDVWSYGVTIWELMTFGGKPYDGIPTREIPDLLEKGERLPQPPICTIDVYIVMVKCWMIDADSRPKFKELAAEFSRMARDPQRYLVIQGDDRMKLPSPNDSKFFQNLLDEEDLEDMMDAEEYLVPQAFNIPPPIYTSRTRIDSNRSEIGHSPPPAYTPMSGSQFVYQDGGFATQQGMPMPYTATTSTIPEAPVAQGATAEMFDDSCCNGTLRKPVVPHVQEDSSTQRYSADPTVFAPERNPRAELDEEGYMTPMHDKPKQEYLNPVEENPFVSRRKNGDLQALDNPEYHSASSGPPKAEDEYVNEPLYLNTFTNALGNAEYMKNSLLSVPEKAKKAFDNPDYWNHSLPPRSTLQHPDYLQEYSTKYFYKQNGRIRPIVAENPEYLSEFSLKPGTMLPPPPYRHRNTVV
T1 sequence (P06494 23-1257 partner): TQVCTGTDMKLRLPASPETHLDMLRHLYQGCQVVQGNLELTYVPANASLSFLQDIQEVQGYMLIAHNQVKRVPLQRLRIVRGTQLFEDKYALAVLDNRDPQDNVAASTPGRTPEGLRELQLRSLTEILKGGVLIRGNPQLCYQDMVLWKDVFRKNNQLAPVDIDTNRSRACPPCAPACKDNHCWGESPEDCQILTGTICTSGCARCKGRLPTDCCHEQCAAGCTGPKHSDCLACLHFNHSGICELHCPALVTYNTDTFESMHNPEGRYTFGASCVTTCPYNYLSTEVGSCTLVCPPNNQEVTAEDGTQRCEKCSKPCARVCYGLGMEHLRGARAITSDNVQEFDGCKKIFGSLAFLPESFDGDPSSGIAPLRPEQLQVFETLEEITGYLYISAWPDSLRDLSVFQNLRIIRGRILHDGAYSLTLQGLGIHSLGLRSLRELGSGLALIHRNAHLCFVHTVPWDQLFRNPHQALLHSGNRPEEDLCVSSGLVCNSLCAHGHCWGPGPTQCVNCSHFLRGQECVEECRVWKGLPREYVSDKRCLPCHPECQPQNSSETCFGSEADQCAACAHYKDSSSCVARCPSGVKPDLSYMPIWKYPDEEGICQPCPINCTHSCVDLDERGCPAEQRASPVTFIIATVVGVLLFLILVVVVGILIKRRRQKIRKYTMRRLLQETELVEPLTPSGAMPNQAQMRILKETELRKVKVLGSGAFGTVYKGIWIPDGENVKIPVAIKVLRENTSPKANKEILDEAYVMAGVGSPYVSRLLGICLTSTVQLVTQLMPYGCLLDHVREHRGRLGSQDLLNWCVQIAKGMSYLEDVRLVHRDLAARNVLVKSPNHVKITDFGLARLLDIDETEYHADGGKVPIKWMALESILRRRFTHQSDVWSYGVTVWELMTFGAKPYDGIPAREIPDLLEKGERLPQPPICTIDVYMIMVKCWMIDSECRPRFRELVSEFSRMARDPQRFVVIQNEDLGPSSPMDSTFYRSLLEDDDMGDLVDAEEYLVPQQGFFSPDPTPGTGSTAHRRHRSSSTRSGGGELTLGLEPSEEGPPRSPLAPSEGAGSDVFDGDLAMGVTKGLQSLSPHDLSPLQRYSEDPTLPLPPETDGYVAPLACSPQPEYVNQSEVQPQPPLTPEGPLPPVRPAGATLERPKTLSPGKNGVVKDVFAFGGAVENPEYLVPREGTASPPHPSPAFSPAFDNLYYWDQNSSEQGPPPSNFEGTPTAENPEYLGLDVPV
Experimental: (§2) A cell based assay utilizing CHO-K1 cells overexpressing human or rat HER receptors is used to determine activity of NRG4 compounds. CHO-K1 cells (ATCC) are grown in DMEM-F12 3:1 with 5% FBS with 20 mM HEPES, 40 μg/mL L-Proline, lx antibiotics and were split 1:5 every 2-3 days with TripLE Express (Gibco). Cells are transfected with plasmid DNA encoding HER receptors in pairs (hHER2-3, hHER2-4, rHER2-3 and rHER2-4) with Fugene 6 (Promega) according to the manufacturer's instructions. […] Transfected cells are selected with Puromycin (12 ug/ml) and Hygromycin (1 mg/ml) for 3-4 weeks and clonal lines are obtained by limited dilution cloning into 96 well plates. Clonal lines are selected by appropriate gene expression of HER2, HER3 or HER4 by Taqman method. Lines with appropriate receptor expression are confirmed by NRG1 induced phospho-ERK 1/2 responses. Clones are grown up, harvested, aliquoted into cryovials and then frozen under liquid nitrogen for long-term storage.
(§3) A phospho-ERK1/2 activity assay is utilized with CHO-K1 cells overexpressing human or rat HER receptors to determine potencies and selectivity of purified NRG4 compounds. CHO-K1 cell lines expressing the human or rat HER receptors are cultured with selection medium (DMEM-F12 3:1 with 5% FBS with 20 mM HEPES, 40 μg/mL L-Proline, 1× antibiotics, 12 μg/mL puromycin, 1 mg/mL Hygromycin B). On Day −1 (the day before phospho-ERK1/2 assay), cells are washed once with PBS, detached with enzyme free cell dissociation solution (GIBCO cat #13151-014), and resuspended in plating medium (DMEM-F12 3:1 with 20 mM HEPES, lx antibiotics, 0.2% FBS). Cells are plated in a 96-well Poly-D-Lysine coated plate (BD cat #354640) at 10,000 cells per 0.1 mL per well. Cells are cultured in a tissue culture incubator at 37° C. 5% CO2 overnight. On Day 1 (the day of pERK1/2 assay), plates are incubated at room temperature for 30 min. The culture media are removed followed by addition of 504, ligand at various concentrations diluted in PBS-20 mM HEPES-0.005% BSA. Native human NRG1 and NRG4 peptides are purchased from Reprokine (Tampa, Fla.). The stimulation time is 30 min (except for hHER2-4 1H6 line in which 15 min is used for stimulation). At the end of stimulation, ligands are removed and 704, Lysis buffer (made according to manufacturer's recipe, Perkin Elmer cat #ALSU-PERK-A10K) is added. Plates are incubated at room temperature for 10 min on plate shaker with 350 rpm agitation, then on ice for 1 hour without shaking. 304, of cell lysis is transferred to a 96-well white Optiplate (Perkin Elmer cat #6002290) for phospho-ERK1/2 assay. Briefly 7.5 μL acceptor beads are added to 30 μL lysis in Optiplate. The plate is covered with aluminum foil and incubated at room temperature for 1 hour on plate shaker with 350 rpm agitation. Then 7.5 μL donor beads are added and the plate is covered with aluminum foil and incubated at room temperature for 2 hours on plate shaker with 350 rpm agitation or at 4° C. for overnight (warm up plate at room temperature for 2 h before reading). Alpha signal data are obtained on an Envision instrument (Alpha Technology-compatible plate reader). Donor beads and acceptor beads are made according to assay protocol. The data shown are generated with either the AlphaScreen SureFire p-ERK1/2 (Thr202/Tyr204) assay kit (Cat #TGRES50k) or the AlphaLISA® SureFire® Ultra™ p-ERK 1/2 (Thr202/Tyr204) assay kit (Perkin Elmer cat #ALSU-PERK-A10K). The activity of the NRG1 peptide was similar in both types of assays. Raw data obtained from the Envision instrument is imported into GraphPad Prism software (version 7). The EC50 value is generated by a variable slope-four parameter dose response curve. The % of maximal NRG1 activity data are generated by expressing the average maximal raw data for the NRG4 compound over the average maximal raw data for the native human NRG1 per plate and multiplying by 100. Data are provided below in Tables 7-9. N values reflect number of independent assays run. […]

[2] = Plasma pharmacokinetics in rats (toxicology studies); settings: rat, in vivo, sc, 30 mg/kg
Experimental: as §1

[3] = tested on: rat model of heart failure with reduced ejection fraction (HFrEF); test: Rat MI model, Example 11 dose-response, echocardiography; type: in vivo
Experimental: A nonclinical efficacy pharmacology study is conducted in a rat model of heart failure with reduced ejection fraction (HFrEF) to identify dose-response relationship for Example 11.
Briefly, the rats are anesthetized and positively ventilated throughout the procedure. […] The left coronary artery is permanently ligated. The sham-operated animals undergo the same procedure except the silk suture is placed around the left coronary artery without being tied. All rats are individually housed in a temperature and humidity controlled room and maintained on a 12 hour light/dark cycle. Three weeks after surgery, rats undergo transthoracic echocardiography for determination of ejection fraction (EF %) and left ventricle dimensions (LVD) using a Vevo 2100 ultrasound system. Rats are randomized across treatment groups according to EF % and LVD.
Measurements of EF % and LVD are expressed as mean values±standard error (SE). Statistical analysis is performed with JMP® 13 software (SAS Institute, Inc.; Cary, N.C.) and Dunnett's Test is used for statistical comparisons across treatment groups. Statistical significance is accepted at P<0.05.
Two to three weeks after MI surgery, animals are allocated to treatment groups and treated with a single injection of vehicle (DPBS) or one of the 3 dose levels (0.3, 1, 3 mg/kg) of Example 11.

human HER2/HER3 = molecular target: T2, human HER2/HER3 (Homo sapiens, UniProt P21860); test: Human HER2/HER3 phospho-ERK 1/2 assay, purified proteins, CHO-K1 cells; type: cell-based; settings: purified proteins; phospho-ERK1/2
T2 construct: expressed in transfected cells
Experimental: as §2
as §3, with “assays.” for “assays. Raw data obtained from the Envision instrument is imported into GraphPad Prism software (version 7). The EC50 value is generated by a variable slope-four parameter dose response curve. The % of maximal NRG1 activity data are generated by expressing the average maximal raw data for the NRG4 compound over the average maximal raw data for the native human NRG1 per plate and multiplying by 100. Data are provided below in Tables 7-9. N values reflect number of independent assays run.”

rat HER2/HER3 = molecular target: T3, rat HER2/HER3 (Rattus norvegicus, UniProt Q62799); test: Rat HER2/HER3 phospho-ERK 1/2 assay, purified proteins, CHO-K1 cells; type: cell-based; settings: phospho-ERK1/2
T3 construct: expressed in transfected cells
T3 sequence (Q62799 20-1339): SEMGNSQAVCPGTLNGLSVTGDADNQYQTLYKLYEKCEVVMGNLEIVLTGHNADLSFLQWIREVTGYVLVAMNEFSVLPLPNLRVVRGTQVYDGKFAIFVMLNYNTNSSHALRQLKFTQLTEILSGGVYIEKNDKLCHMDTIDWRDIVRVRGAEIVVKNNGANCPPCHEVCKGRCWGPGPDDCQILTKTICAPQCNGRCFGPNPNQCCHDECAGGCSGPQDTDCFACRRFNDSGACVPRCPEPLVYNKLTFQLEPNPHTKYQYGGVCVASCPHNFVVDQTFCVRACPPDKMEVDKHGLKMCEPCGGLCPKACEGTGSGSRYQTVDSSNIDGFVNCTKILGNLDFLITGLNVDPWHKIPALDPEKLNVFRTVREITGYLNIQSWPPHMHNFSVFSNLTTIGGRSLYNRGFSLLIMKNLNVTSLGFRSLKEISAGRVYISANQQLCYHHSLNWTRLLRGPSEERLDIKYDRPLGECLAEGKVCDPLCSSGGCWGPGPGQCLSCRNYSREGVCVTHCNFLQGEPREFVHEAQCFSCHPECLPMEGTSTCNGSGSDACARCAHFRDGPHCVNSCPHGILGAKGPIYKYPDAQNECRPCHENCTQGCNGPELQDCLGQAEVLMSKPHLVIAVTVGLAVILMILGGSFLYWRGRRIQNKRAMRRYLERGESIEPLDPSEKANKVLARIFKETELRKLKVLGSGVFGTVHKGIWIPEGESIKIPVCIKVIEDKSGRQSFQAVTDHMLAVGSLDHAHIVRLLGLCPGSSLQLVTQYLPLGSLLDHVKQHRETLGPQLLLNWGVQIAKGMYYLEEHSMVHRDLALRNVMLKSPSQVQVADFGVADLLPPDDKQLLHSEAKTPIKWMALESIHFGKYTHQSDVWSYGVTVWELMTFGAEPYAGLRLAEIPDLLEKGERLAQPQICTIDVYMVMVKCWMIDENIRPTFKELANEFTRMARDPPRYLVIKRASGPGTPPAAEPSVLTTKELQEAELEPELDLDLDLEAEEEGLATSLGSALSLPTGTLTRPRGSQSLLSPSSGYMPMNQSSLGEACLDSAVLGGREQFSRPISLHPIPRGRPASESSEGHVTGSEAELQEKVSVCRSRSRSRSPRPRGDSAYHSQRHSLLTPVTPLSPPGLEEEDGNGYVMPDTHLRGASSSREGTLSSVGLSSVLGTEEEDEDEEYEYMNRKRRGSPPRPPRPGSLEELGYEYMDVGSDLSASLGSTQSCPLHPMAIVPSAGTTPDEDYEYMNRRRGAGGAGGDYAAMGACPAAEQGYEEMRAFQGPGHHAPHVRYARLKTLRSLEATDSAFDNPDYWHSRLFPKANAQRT
T3 sequence (P06494 23-1257 partner): as the sequence (P06494 23-1257 partner) above
Experimental: as §2
A phospho-ERK1/2 activity assay is utilized with CHO-K1 cells overexpressing human or rat HER receptors to determine potencies and selectivity of purified NRG4 compounds. CHO-K1 cell lines expressing the human or rat HER receptors are cultured with selection medium (DMEM-F12 3:1 with 5% FBS with 20 mM HEPES, 40 μg/mL L-Proline, 1× antibiotics, 12 μg/mL puromycin, 1 mg/mL Hygromycin B). On Day −1 (the day before phospho-ERK1/2 assay), cells are washed once with PBS, detached with enzyme free cell dissociation solution (GIBCO cat #13151-014), and resuspended in plating medium (DMEM-F12 3:1 with 20 mM HEPES, lx antibiotics, 0.2% FBS). Cells are plated in a 96-well Poly-D-Lysine coated plate (BD cat #354640) at 10,000 cells per 0.1 mL per well. […] Then 7.5 μL donor beads are added and the plate is covered with aluminum foil and incubated at room temperature for 2 hours on plate shaker with 350 rpm agitation or at 4° C. for overnight (warm up plate at room temperature for 2 h before reading). Alpha signal data are obtained on an Envision instrument (Alpha Technology-compatible plate reader). […]

cynomolgus monkeys = test: Toxicology study in cynomolgus monkeys, cardiac tissue inspection; settings: male and female monkeys, single 3 mg/kg SC bolus injection
Experimental: as §1

human HER2/HER4 = molecular target: T4, human HER2/HER4 (Homo sapiens, UniProt Q15303); test: Human HER2/HER4 phospho-ERK 1/2 assay, purified proteins, CHO-K1 cells; type: cell-based
T4 construct: expressed in transfected cells
Experimental: as §2, §3

[4] = maximal signal relative to native human NRG1 per plate
[5] = purified proteins, phospho-ERK1/2

B1: Example 11: NRG4 D1G/V22Q/E44K, (GGGGS)3 linker, SEQ ID NO: 19, fused to IgG Fc dimer SEQ ID NO: 8 and 9 (protein)
chain 1: GGGGSGGGGSGGGGSGHEEPCGPSHKSFCLNGGLCYQIPTIPSPFCRCVENYTGARCEKVFL
chain 2: ECPPCPAPPVAGPSVFLFPPKPKDTLMASRTPEVTCVVVDVSHEDPEVQFNWYVDGVEVHNAKTKPREEQFNSTFRVVSVLTVVHQDWLNGKEYKCKVSNKGLPAPIEKTISKTKGQPREPQVYTLPPSREEMTKNQVSLWCLVKGFYPSDIAVEWESNGQPENNYKTTPPVLDSDGSFFLYSKLTVDKSRWQQGNVFSCSVMHEALHNAYTQKSLSLSPG
chain 3: B1 chain 2 with W141S, L143A, Y182V
time for detectable plasma concentrations to be cleared [1]: > 168 h
inspections of tissue (cardiac toxicity) (rats): no evidence of cardiac degeneration and/or necroses
% Maximal NRG1 activity (rat HER2/HER4; [4]): 96 ± 2 (N = 2) %
EC50 (rat HER2/HER4; [5]): 0.17 ± 0.06 nM
plasma concentration [2]: undetectable at 96 hours
Ejection Fraction ([3]; 0.3 mg/kg single injection, 7 days after dosing): 50.1* %
Ejection Fraction ([3]; 0.3 mg/kg single injection, 14 days after dosing): 42.6%
Ejection Fraction ([3]; 0.3 mg/kg single injection, 21 days after dosing): 36.4%
Ejection Fraction ([3]; 0.3 mg/kg single injection, Baseline (before dosing)): 45.4%
Ejection Fraction ([3]; 1 mg/kg single injection, 7 days after dosing): 52.4* %
Ejection Fraction ([3]; 1 mg/kg single injection, 14 days after dosing): 42.2%
Ejection Fraction ([3]; 1 mg/kg single injection, 21 days after dosing): 39.7%
Ejection Fraction ([3]; 1 mg/kg single injection, Baseline (before dosing)): 46.6%
Ejection Fraction ([3]; 3 mg/kg single injection, 7 days after dosing): 54.7* %
Ejection Fraction ([3]; 3 mg/kg single injection, 14 days after dosing): 54.0* %
Ejection Fraction ([3]; 3 mg/kg single injection, 21 days after dosing): 39.6%
Ejection Fraction ([3]; 3 mg/kg single injection, Baseline (before dosing)): 45.8%
LVD dilation ([3]; 0.3, 1, 3 mg/kg single injection vs vehicle, course of the study (data not shown)): No differences in LVD dilation are observed across groups
EC50 (human HER2/HER3): > 1000 nM
EC50 (rat HER2/HER3): > 1000 nM
inspections of tissue (cardiac toxicity) (cynomolgus monkeys): cardiac degeneration and necrosis
% Maximal NRG1 activity (human HER2/HER4; [4]): 79 ± 2 (N = 5) %
EC50 (human HER2/HER4; [5]): 0.55 ± 0.11 nM
